Legend:
CHO-S cells = assay: Western blot analysis of PH20 expression in media and cells after transient expression; format: cell-based, Chinese Hamster; details: media versus cells
Description: The mutant PH20-HZ24 plasmids generated in Example 1 were transiently […] into CHO—S cells (derived from Chinese Hamster Ovary CHO K1 cells) using GeneJuice® (Novagen) according to the manufacturer's instructions. In short, the CHO—S cells were grown in CD CHO medium supplemented with L-glutamine. Prior to transfection, the CHO—S cells were plated in 6-well plates, with approximately 5×10^5 cells per well, and grown overnight at 37° C. with 5% CO2. The medium was then removed and the CHO—S cells were washed 2 times with 1 mL serum-free medium. GeneJuice® was mixed with serum-free media followed by the addition of 2 μg mutant-HZ24 DNA. After incubating at room temperature for 5-15 minutes, the GeneJuice®/DNA mixture was added dropwise to an individual well containing the washed CHO—S cells. After 4 hours, the medium was replaced with 1 mL CD-CHO medium supplemented with L-glutamine and the cells were incubated for 72 hours at 37° C. with 5% CO2. Following expression, the media and cells were harvested separately.
The mutant PH20-HZ24 plasmids generated in Example 1 were transiently […] into CHO—S cells using GeneJuice® (Novagen) according to the manufacturer's instructions. […]
In this example, following transient expression, as described in Example 2 above, the media and cells were harvested separately and analyzed for PH20 expression and solublility by Western blot analysis. Solubility of the C-terminus truncation mutants was determined by examining whether the expressed protein was present in the growth media or in the cells. […] Cells expressing these mutants were treated with phosphoinositol-phospholipase C (PI-PLC), which cleaves the GPI-anchor allowing the release of soluble protein into the media, and the presence of PH20 in the resulting media and cells was determined by Western blot analysis.
Non-reduced samples were run on a 4-20% Tris-Glycine gel and transferred to PVDF membrane using iBlot (Invitrogen). For the Western blot, rabbit anti-PH20 IgG (0.5 μg/mL) was used as the primary antibody and HRP-conjugated goat anti-rabbit IgG (0.1 ng/mL, Cat#DC03L, EMD) was used as the secondary antibody. Evidence of expression is determined by a band at approximately 66 kDa, corresponding to recombinant human PH20 hyaluronidase.

[1] = Microtiter hyaluronidase activity assay with biotinylated-hyaluronic acid; format: biochemical; details: Table 6, 72 hour post transfection supernatant
Description: In Example 4, the hyaluronidase activity of truncated human PH20 hyaluronidase is determined using biotinylated hyaluronic acid. The free carboxyl groups on the glucuronic acid residues of hyaluronic acid are biotinylated, and the biotinylated hyaluronic acid substrate is covalently coupled to a microtiter plate. Following incubation with hyaluronidase, the residual biotinylated hyaluronic acid substrate is detected using an avidin-peroxidase reaction, and compared to that obtained following reaction with hyaluronidase standards of known activity. […] The sensitivity permits rapid measurement of hyaluronidase activity from cultured cells and biological samples with an inter-assay variation of less than 10%.
In this example, the human PH20 hyaluronidase carboxy-terminus deletion mutants were tested for their PH20 hyaluronidase activity using a microtiter assay with biotinylated-hyaluronic acid (biotinylated-HA or bHA). The human PH20 hyaluronidase carboxy-terminus deletion mutants were tested for hyaluronidase activity at both pH 7.4 and pH 5.5.
In short, a 4×BH 96-well plate was coated with biotinylated-HA (1.1 MDa). The 72 hour post transfection supernatant from cells transfected with human PH20 hyaluronidase carboxy-terminus deletion mutants was diluted in buffer at either pH 7.4 or pH 5.5 and added to individual wells of the plate and allowed to incubate at 37° C. for 90 minutes. The reaction was terminated by addition of 4M guanidine HCl. The wells were washed 4× with Phosphate Buffered Saline with Tween20 (PBST) to remove any digested biotinylated-HA followed by addition of streptavidin-HRP for 1 hour at room temperature. The wells were washed 4× with PBST and the plate was developed with TMB. The plate was read at 450 nm using an ELISA plate reader. Hyaluronidase activity (in Units/mL) was determined by interpolating the measured absorbance at 450 nm with a hyaluronidase reference standard curve. Full length mature human PH20 hyaluronidase and untransfected CHO cells were used as positive and negative controls.

B1: SPAM1-GVCI: C-terminally truncated human PH20, precursor 465 aa (SEQ ID NO:35), mature 430 aa (SEQ ID NO:87) (protein, listed as Homo sapiens)
chain 1: MGVLKFKHIFFRSFVKSSGVSQIVFTFLLIPCCLTLNFRAPPVIPNVPFLWAWNAPSEFCLGKFDEPLDMSLFSFIGSPRINATGQGVTIFYVDRLGYYPYIDSITGVTVNGGIPQKISLQDHLDKAKKDITFYMPVDNLGMAVIDWEEWRPTWARNWKPKDVYKNRSIELVQQQNVQLSLTEATEKAKQEFEKAGKDFLVETIKLGKLLRPNHLWGYYLFPDCYNHHYKKPGYNGSCFNVEIKRNDDLSWLWNESTALYPSIYLNTQQSPVAATLYVRNRVREAIRVSKIPDAKSPLPVFAYTRIVFTDQVLKFLSQDELVYTFGETVALGASGIVIWGTLSIMRSMKSCLLLDNYMETILNPYIINVTLAAKMCSQVLCQEQGVCIRKNWNSSDYLHLNPDNFAIQLEKGGKFTVRGKPTLEDLEQFSEKFYCSCYSTLSCKEKADVKDTDAVDVCIADGVCI
chain 2: LNFRAPPVIPNVPFLWAWNAPSEFCLGKFDEPLDMSLFSFIGSPRINATGQGVTIFYVDRLGYYPYIDSITGVTVNGGIPQKISLQDHLDKAKKDITFYMPVDNLGMAVIDWEEWRPTWARNWKPKDVYKNRSIELVQQQNVQLSLTEATEKAKQEFEKAGKDFLVETIKLGKLLRPNHLWGYYLFPDCYNHHYKKPGYNGSCFNVEIKRNDDLSWLWNESTALYPSIYLNTQQSPVAATLYVRNRVREAIRVSKIPDAKSPLPVFAYTRIVFTDQVLKFLSQDELVYTFGETVALGASGIVIWGTLSIMRSMKSCLLLDNYMETILNPYIINVTLAAKMCSQVLCQEQGVCIRKNWNSSDYLHLNPDNFAIQLEKGGKFTVRGKPTLEDLEQFSEKFYCSCYSTLSCKEKADVKDTDAVDVCIADGVCI
modifications: HuPH20 precursor 1-465; Mature HuPH20 36-465
Expressed in Media (CHO-S cells): YES
pH 5.5 Activity [1]: 0.468 Units/ml
pH 7.4 Activity [1]: 0.441 Units/ml

B2: SPAM1-DGVC: C-terminally truncated human PH20, precursor 464 aa (SEQ ID NO:36), mature 429 aa (SEQ ID NO:88) (protein, listed as Homo sapiens)
chain 1: MGVLKFKHIFFRSFVKSSGVSQIVFTFLLIPCCLTLNFRAPPVIPNVPFLWAWNAPSEFCLGKFDEPLDMSLFSFIGSPRINATGQGVTIFYVDRLGYYPYIDSITGVTVNGGIPQKISLQDHLDKAKKDITFYMPVDNLGMAVIDWEEWRPTWARNWKPKDVYKNRSIELVQQQNVQLSLTEATEKAKQEFEKAGKDFLVETIKLGKLLRPNHLWGYYLFPDCYNHHYKKPGYNGSCFNVEIKRNDDLSWLWNESTALYPSIYLNTQQSPVAATLYVRNRVREAIRVSKIPDAKSPLPVFAYTRIVFTDQVLKFLSQDELVYTFGETVALGASGIVIWGTLSIMRSMKSCLLLDNYMETILNPYIINVTLAAKMCSQVLCQEQGVCIRKNWNSSDYLHLNPDNFAIQLEKGGKFTVRGKPTLEDLEQFSEKFYCSCYSTLSCKEKADVKDTDAVDVCIADGVC
chain 2: LNFRAPPVIPNVPFLWAWNAPSEFCLGKFDEPLDMSLFSFIGSPRINATGQGVTIFYVDRLGYYPYIDSITGVTVNGGIPQKISLQDHLDKAKKDITFYMPVDNLGMAVIDWEEWRPTWARNWKPKDVYKNRSIELVQQQNVQLSLTEATEKAKQEFEKAGKDFLVETIKLGKLLRPNHLWGYYLFPDCYNHHYKKPGYNGSCFNVEIKRNDDLSWLWNESTALYPSIYLNTQQSPVAATLYVRNRVREAIRVSKIPDAKSPLPVFAYTRIVFTDQVLKFLSQDELVYTFGETVALGASGIVIWGTLSIMRSMKSCLLLDNYMETILNPYIINVTLAAKMCSQVLCQEQGVCIRKNWNSSDYLHLNPDNFAIQLEKGGKFTVRGKPTLEDLEQFSEKFYCSCYSTLSCKEKADVKDTDAVDVCIADGVC
modifications: HuPH20 precursor 1-464; Mature HuPH20 36-464
Expressed in Media (CHO-S cells): YES
pH 5.5 Activity [1]: 0.045 Units/ml
pH 7.4 Activity [1]: 0 Units/ml

B3: SPAM1-VCIA: C-terminally truncated human PH20, precursor 460 aa (SEQ ID NO:38), mature 425 aa (SEQ ID NO:90) (protein, listed as Homo sapiens)
chain 1: MGVLKFKHIFFRSFVKSSGVSQIVFTFLLIPCCLTLNFRAPPVIPNVPFLWAWNAPSEFCLGKFDEPLDMSLFSFIGSPRINATGQGVTIFYVDRLGYYPYIDSITGVTVNGGIPQKISLQDHLDKAKKDITFYMPVDNLGMAVIDWEEWRPTWARNWKPKDVYKNRSIELVQQQNVQLSLTEATEKAKQEFEKAGKDFLVETIKLGKLLRPNHLWGYYLFPDCYNHHYKKPGYNGSCFNVEIKRNDDLSWLWNESTALYPSIYLNTQQSPVAATLYVRNRVREAIRVSKIPDAKSPLPVFAYTRIVFTDQVLKFLSQDELVYTFGETVALGASGIVIWGTLSIMRSMKSCLLLDNYMETILNPYIINVTLAAKMCSQVLCQEQGVCIRKNWNSSDYLHLNPDNFAIQLEKGGKFTVRGKPTLEDLEQFSEKFYCSCYSTLSCKEKADVKDTDAVDVCIA
chain 2: LNFRAPPVIPNVPFLWAWNAPSEFCLGKFDEPLDMSLFSFIGSPRINATGQGVTIFYVDRLGYYPYIDSITGVTVNGGIPQKISLQDHLDKAKKDITFYMPVDNLGMAVIDWEEWRPTWARNWKPKDVYKNRSIELVQQQNVQLSLTEATEKAKQEFEKAGKDFLVETIKLGKLLRPNHLWGYYLFPDCYNHHYKKPGYNGSCFNVEIKRNDDLSWLWNESTALYPSIYLNTQQSPVAATLYVRNRVREAIRVSKIPDAKSPLPVFAYTRIVFTDQVLKFLSQDELVYTFGETVALGASGIVIWGTLSIMRSMKSCLLLDNYMETILNPYIINVTLAAKMCSQVLCQEQGVCIRKNWNSSDYLHLNPDNFAIQLEKGGKFTVRGKPTLEDLEQFSEKFYCSCYSTLSCKEKADVKDTDAVDVCIA
modifications: HuPH20 precursor 1-460; Mature HuPH20 36-460
Expressed in Media (CHO-S cells): YES
pH 5.5 Activity [1]: 0.0135 Units/ml
pH 7.4 Activity [1]: 0 Units/ml

B4: SPAM1-IADG: C-terminally truncated human PH20, precursor 462 aa (SEQ ID NO:37), mature 427 aa (SEQ ID NO:89) (protein, listed as Homo sapiens)
chain 1: MGVLKFKHIFFRSFVKSSGVSQIVFTFLLIPCCLTLNFRAPPVIPNVPFLWAWNAPSEFCLGKFDEPLDMSLFSFIGSPRINATGQGVTIFYVDRLGYYPYIDSITGVTVNGGIPQKISLQDHLDKAKKDITFYMPVDNLGMAVIDWEEWRPTWARNWKPKDVYKNRSIELVQQQNVQLSLTEATEKAKQEFEKAGKDFLVETIKLGKLLRPNHLWGYYLFPDCYNHHYKKPGYNGSCFNVEIKRNDDLSWLWNESTALYPSIYLNTQQSPVAATLYVRNRVREAIRVSKIPDAKSPLPVFAYTRIVFTDQVLKFLSQDELVYTFGETVALGASGIVIWGTLSIMRSMKSCLLLDNYMETILNPYIINVTLAAKMCSQVLCQEQGVCIRKNWNSSDYLHLNPDNFAIQLEKGGKFTVRGKPTLEDLEQFSEKFYCSCYSTLSCKEKADVKDTDAVDVCIADG
chain 2: LNFRAPPVIPNVPFLWAWNAPSEFCLGKFDEPLDMSLFSFIGSPRINATGQGVTIFYVDRLGYYPYIDSITGVTVNGGIPQKISLQDHLDKAKKDITFYMPVDNLGMAVIDWEEWRPTWARNWKPKDVYKNRSIELVQQQNVQLSLTEATEKAKQEFEKAGKDFLVETIKLGKLLRPNHLWGYYLFPDCYNHHYKKPGYNGSCFNVEIKRNDDLSWLWNESTALYPSIYLNTQQSPVAATLYVRNRVREAIRVSKIPDAKSPLPVFAYTRIVFTDQVLKFLSQDELVYTFGETVALGASGIVIWGTLSIMRSMKSCLLLDNYMETILNPYIINVTLAAKMCSQVLCQEQGVCIRKNWNSSDYLHLNPDNFAIQLEKGGKFTVRGKPTLEDLEQFSEKFYCSCYSTLSCKEKADVKDTDAVDVCIADG
modifications: HuPH20 precursor 1-462; Mature HuPH20 36-462
Expressed in Media (CHO-S cells): YES
pH 5.5 Activity [1]: 0.00225 Units/ml
pH 7.4 Activity [1]: 0 Units/ml
